Experimental data taken from US20250027901A1.

Target: Maleimide-modified SpyTag peptide (MCA-SpyTag)
Assay: QCMD, nanobody-SpyCatcher coupling to maleimide-SpyTag peptide on HDT SAM

“VHH72-8 aa-spyCatcher-3C cleavage site-His8” was tested, and the Density per cm^2 was 6.5e+12 per cm^2 and the gained mass (ng/cm^2) was 313 ng/cm^2.
